From publication PMC8080067, “Tight binding of cytochrome b5 to cytochrome P450 17A1 is a critical feature of stimulation of C21 steroid lyase activity and androgen synthesis” (The Journal of Biological Chemistry, 2021)
Numbering of substitutions follows the chain as printed.

Tests used:
WT P450 17A1 = target: T1, WT P450 17A1 (Homo sapiens, UniProt P05093); format: biochemical; set-up: made in house; host or cells: Escherichia coli (P450 17A1 in JM109)
T1 sequence (P05093 1-508): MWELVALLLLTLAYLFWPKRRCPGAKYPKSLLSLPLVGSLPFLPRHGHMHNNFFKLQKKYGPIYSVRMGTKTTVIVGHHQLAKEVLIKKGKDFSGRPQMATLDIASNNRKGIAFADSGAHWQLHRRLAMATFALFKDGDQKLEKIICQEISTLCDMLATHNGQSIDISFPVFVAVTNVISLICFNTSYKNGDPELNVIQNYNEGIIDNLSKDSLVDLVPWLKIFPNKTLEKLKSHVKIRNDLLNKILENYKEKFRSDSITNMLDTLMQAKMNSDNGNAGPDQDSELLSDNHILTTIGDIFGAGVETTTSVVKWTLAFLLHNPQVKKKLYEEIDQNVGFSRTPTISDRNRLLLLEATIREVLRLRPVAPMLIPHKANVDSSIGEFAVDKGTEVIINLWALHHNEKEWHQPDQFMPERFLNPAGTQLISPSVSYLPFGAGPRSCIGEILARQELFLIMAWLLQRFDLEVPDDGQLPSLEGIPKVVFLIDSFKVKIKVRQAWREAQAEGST
Procedure: Figure S4. Stimulation of lyase activities by b5, T70C- b5, and NanoTemper Blue-T70C-b5. Catalytic assays for the lyase reactions were performed and analyzed as described in the main text.

P450 17A1 R358Q variant = target: T2, P450 17A1 R358Q variant (Homo sapiens, UniProt P05093, R358Q)
T2 sequence (P05093 1-508 R358Q): T1 sequence (P05093 1-508) with R358Q
Procedure: (§1) P450 catalytic activity assays to measure steroid hydroxylation and lyase reactions were carried out as described previously ([23], [37], [64]).
(§2) The reactions were initiated by adding an NADPH-regenerating system (final concentrations of 15 mM glucose 6-phosphate, 1.5 mM NADP^+, and 1 IU ml^−1 glucose 6-phosphate dehydrogenase) ([75]) and terminated by quenching and extracting with 2.0 ml CH2Cl2. Aliquots of the organic phases were dried and then dissolved in 100 μl of a CH3CN/H2O (1:1, v/v) mixture. […] The extraction procedure was then repeated, and the (Δ^4) reaction products were analyzed in a Waters Acquity UPLC system using a BEH C18 octadecylsilane column (2.1 mm × 100 mm, 1.7 μm). The reaction products were resolved using a mobile phase composed of solvents A (70% CH3OH, 30% H2O, v/v) and B (CH3CN), at a flow rate of 0.2 ml min^−1. The mobile phase linear gradient proceeded as follows: 0 to 1 min, 5% B; 4 min, 30% B; 4.5 min, 40% B; 4.55 to 6.75 min, 95% BA; and 7 to 10 min, 5% B. The reaction products were identified by coelution with commercial standards and quantified by the A243 peak areas. Steady-state kinetic parameters were estimated using nonlinear regression of hyperbolic fits in GraphPad Prism software, with equations used for kcat and the specificity constant kcat/Km ([76]): Y = (ksp ∗ X)/(1 + (ksp ∗ X/kcat)) and then deriving Km by division.

P450 17A1 R347H variant = target: T3, P450 17A1 R347H variant (Homo sapiens, UniProt P05093, R347H)
T3 sequence (P05093 1-508 R347H): T1 sequence (P05093 1-508) with R347H
Procedure: as §1, §2

P450 17A1 = system: P450 17A1; set-up: method as in PMID 30468857; conditions: SPR; cited from earlier work

B1: b5: recombinant human cytochrome b5, unlabeled (protein)
chain: MAEQSDEAVKYYTLEEIQKHNHSKSTWLILHHKVYDLTKFLEEHPGGEEVLREQAGGDATENFEDVGHSTDAREMSKTFIIGELHPDDRPKLNKPPETLITTIDSSSS
- stimulation of lyase activities (WT P450 17A1): stimulated by b5 in a concentration-dependent manner
- stimulation of lyase reactions (P450 17A1 R358Q variant): did not display b5 concentration-dependent stimulation
- stimulation of lyase reactions (P450 17A1 R347H variant): did not display b5 concentration-dependent stimulation
- on-rate constants (P450 17A1): 360 to 5000 M⁻¹ s⁻¹
